Patent US20200113969A1

Legend:
[1] = molecular target: MMP-9 (commercial enzyme, Sigma) (UniProt P14780); test: cell-based or functional assay
[2] = molecular target: MMP-9 present in HT29 extracellular media (human) (UniProt P14780); test: cell-based or functional assay
Sequence of MMP-9 present in HT29 extracellular media (human) (P14780 20-707): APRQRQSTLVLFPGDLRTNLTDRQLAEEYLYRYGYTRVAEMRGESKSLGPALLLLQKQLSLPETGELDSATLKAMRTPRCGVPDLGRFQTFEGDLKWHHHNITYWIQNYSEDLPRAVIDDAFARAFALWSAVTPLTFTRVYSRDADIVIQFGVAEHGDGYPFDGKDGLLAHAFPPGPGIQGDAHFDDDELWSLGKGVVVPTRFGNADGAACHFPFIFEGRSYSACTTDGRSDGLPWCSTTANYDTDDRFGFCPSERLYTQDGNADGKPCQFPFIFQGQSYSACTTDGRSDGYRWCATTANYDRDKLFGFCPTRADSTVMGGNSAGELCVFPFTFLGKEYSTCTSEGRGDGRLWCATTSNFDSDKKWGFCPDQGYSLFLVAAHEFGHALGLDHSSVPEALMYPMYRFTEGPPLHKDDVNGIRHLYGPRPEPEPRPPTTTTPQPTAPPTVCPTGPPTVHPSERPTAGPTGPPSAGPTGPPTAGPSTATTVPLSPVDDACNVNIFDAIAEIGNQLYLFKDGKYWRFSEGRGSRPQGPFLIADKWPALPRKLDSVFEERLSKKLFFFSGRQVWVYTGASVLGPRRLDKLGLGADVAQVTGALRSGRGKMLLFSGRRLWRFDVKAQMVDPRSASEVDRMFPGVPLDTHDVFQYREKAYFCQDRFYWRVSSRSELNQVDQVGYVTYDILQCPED

Sequence of MMP-9 (commercial enzyme, Sigma) (P14780 107-707 limits assumed): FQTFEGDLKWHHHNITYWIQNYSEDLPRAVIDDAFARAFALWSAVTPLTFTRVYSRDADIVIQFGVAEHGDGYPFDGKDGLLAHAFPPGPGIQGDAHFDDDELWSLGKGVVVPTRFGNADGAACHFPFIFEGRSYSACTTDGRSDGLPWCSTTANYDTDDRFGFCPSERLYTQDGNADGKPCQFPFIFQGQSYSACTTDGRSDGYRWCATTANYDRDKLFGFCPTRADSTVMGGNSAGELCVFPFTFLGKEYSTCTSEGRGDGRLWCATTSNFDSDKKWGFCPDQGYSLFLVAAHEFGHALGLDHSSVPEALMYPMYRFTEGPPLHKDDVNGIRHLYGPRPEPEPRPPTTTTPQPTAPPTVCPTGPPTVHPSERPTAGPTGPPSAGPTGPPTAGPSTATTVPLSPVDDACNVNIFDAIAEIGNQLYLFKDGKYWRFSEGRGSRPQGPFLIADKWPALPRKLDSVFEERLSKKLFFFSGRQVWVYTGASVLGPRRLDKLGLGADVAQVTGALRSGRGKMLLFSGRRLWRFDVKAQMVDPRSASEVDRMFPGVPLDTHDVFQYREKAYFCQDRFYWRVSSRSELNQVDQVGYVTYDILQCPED

Row | Substance | gelatinolytic activity of MMP-9 on DQ-gelatin, deflamin at 100 µg/mL [1] | EC50, MMP inhibition (gelatinolytic activity of HT29 media, DQ-gelatin) [2] | MIC, MMP inhibition (gelatinolytic activity of HT29 media, DQ-gelatin) [2] | MMP-9 inhibitory activity, DQ gelatin assay [1]
1 | deflamin isolated from Lupinus albus seeds (from UniProt Q53HY0 31-531; F5B8W8 73-152) | > 90% | 10 mg/L | < 5 mg/L | –
2 | fraction 4 of the size exclusion chromatography (Superdex 75) of the L. albus total protein extract | – | – | – | 100%
